Substrate in this data set: NCCc1ccc(O)c(O)c1
The experiment in a line: cells, lysate or membranes named.

B1: Solute carrier family 22 member 2 (Rattus norvegicus) (protein)
chain: MSTVDDILEHIGEFHLFQKQTFFLLALLSGAFTPIYVGIVFLGFTPDHHCWSPGAAKLSQRCGWSQAEELNYTVPGLGPSDEASFLSQCMRYEVDWNQSTLDCVDPLSSLAADRNQLPLGPCEHGWVYNTPGSSIVTEFNLVCAHSWMLDLFQSVVNVGFFIGAMMIGYLADRFGRKFCLLVTILINAISGALMAISPNYAWMLVFRFLQGLVSKAGWLIGYILITEFVGLGYRRMVGICYQIAFTVGLLILAGVAYVIPNWRWLQFAVTLPNFCFLLYFWCIPESPRWLISQNKIVKAMKIIKHIAKKNGKSVPVSLQNLTPDEDAGKKLNPSFLDLVRTPQIRKHTLILMYNWFTSSVLYQGLIMHMGLAGDNIYLDFFYSALVEFPAAFIIILTIDRVGRRYPWAVSNMVAGAACLASVFIPDDLQWLKITIACLGRMGITMAYEMVCLVNAELYPTYIRNLGVLVCSSMCDIGGIITPFLVYRLTDIWMEFPLVVFAVVGLVAGALVLLLPETKGKALPETIEDAENMQRPRKKKEKRIYLQVKQADRPLS
Take B1: the Km came to 2300 µM.

What is called Km is the substrate concentration at which the rate is half of its maximum.

Values taken from ChEMBL document CHEMBL2074411.
